Results on 3 molecules are retold here after patent US11780907B2, “Human antibodies to influenza hemagglutinin” (Regeneron Pharmaceuticals, Inc., priority 2018, dated 2023).

The subject of test [1] is A/Aichi/02/1968-X31 (H3N2). Also noted: species or system BALB/c mice. The note with it: mouse, in vivo.
Test [2] deals with A/Hiroshima/52/2005 (H3) HA foldon protein. The class given is binding, influenza A virus.
Test [3] concerns A/Aichi/02/1968-PR8-X31(H3N2)-infected MDCKs. The class given is cell-based, canine.
For test [4], the system named is A/Victoria/316/2011 (H3N2). Format: cell-based, influenza A virus.
Test [5] concerns the target A/Shanghai/01/2013 (H7) HA foldon protein. Format: binding, influenza A virus. As to conditions: 37° C.
Test [6] concerns group 1 strains (HA). Format: binding, influenza A virus.
Test [7] concerns A/Aichi/02/1968-X31 (H3N2). Also noted: species or system BALB/c mice. The note with it: mouse, in vivo, iv, 15 mg/kg.
The subject of test [8] is A/Philippines/01/1982 (H3N2). The class given is cell-based, influenza A virus. As to conditions: read-out: Neutralization activity IC50.
For test [9], the system named is A/Aichi/02/1968-PR8-X31 (H3N2). Format: cell-based, influenza A virus. The note with it: read-out: Neutralization activity IC50.
For test [10], the system named is A/Shanghai/01/2013-PR8 (H7N9). The class given is cell-based, influenza A virus. As to conditions: read-out: Neutralization activity IC50.

“Also recorded” adds a separate entry of the source. Like-named read-outs stand apart in the source and are kept apart here.

In the case of `CCOC(=O)C1=C[C@@H](OC(CC)CC)[C@H](NC(C)=O)[C@@H](N)C1` [oseltamivir, reference compound], the survival in test [1] came to 80%.

B1: H1H14611N2: fully human anti-influenza A group 2 HA monoclonal antibody, HCVR/LCVR SEQ ID NOs: 2/10 (antibody, V domains shown)
VH: EVQLVESGGGLVKPGGSLRLSCAASGFTFSGFSMNWVRQVPGKGLEWVSSISTSGNYMYYADSVKGRFTISRDNAKKSFSLQMNSLRAEDSAIYYCARGGGYNWNLFDYWGQGSLVTVSS
VL: EIVLTQSPGTLSLSPGERATLSCRASQSLNSNYLAWYQQKPGQAPRLLIYGASSRATGIPDRFSGSGSGTDFTLTITRLESEDFAVYYCQQYGNSPLTFGGGTKVEIK
Usually Kd stands for the equilibrium constant for the complex coming apart. A lower Kd goes with a tighter complex. In test [2], B1 returned a Kd of 8.22 nM. Further, the “maximum lysis (percent specific lysis)” value in test [3] is 78.3%. In test [1], the “effect when dosed in combination with oseltamivir” value is reported as “additive protective effect; also recorded: additive efficacy”. The figures for the survival in test [1] (7 mg/kg), in [1] (15 mg/kg) and in test [7] were 80%, 100% and “One hundred percent survival; also recorded: survived; also recorded: complete protection”, respectively. Besides, the “lowest concentration of mAb where no RBC hemagglutination was detected” value in test [4] is recorded as 41.7 nM. In addition, in test [5], the KD result was “IC^§”. In test [6], the “binding to group 1 strains” value was “did not bind”.

B2: H1H14612N2: fully human anti-influenza A group 2 HA monoclonal antibody, HCVR/LCVR SEQ ID NOs: 18/26 (antibody, V domains shown)
VH: EVQLVESGGGLVKPGGSLRLSCAASGFSFSGFSMNWVRQAPGKGLEWVSSISTSGNYMYYADSVKGRFTISRDNAKKSFSLQMNSLRAEDSAIYYCARGGGYNWNLFDYWGQGSLVTVSS
VL: EIVLTQSPGTLSLSPGERATLSCRASQSLNSNYLAWYQQKPGQAPRLLIYGASSRATGIPDRFSGSGSGADFTLTISRLESEDFAVYYCQQYGNSPLTFGGGTKVEIK
The term IC50 denotes the concentration at which inhibition is half-maximal. In general, EC50 refers to the midpoint of the concentration-response curve. On to B2, for which the half-maximal inhibitory concentration (IC50) was 37.6 nM in test [8], 5.7 nM in test [9] and greater than 6.67 µM in test [10]. Besides, the “maximum lysis (percent specific lysis)” value in [3] worked out at 86.3%. In addition, the EC50 in [3] (read-out: CDC EC50) amounted to 126 nM. In addition, the “lowest concentration of mAb where no RBC hemagglutination was detected” value in test [4] is listed as 166.7 nM. The survival entry in [7] is “One hundred percent survival; also recorded: survived; also recorded: complete protection”.
